The data set concerns the molecule itself. Put plainly: non-reducing SDS-PAGE.

B1: Thioredoxin-His-tagged OsbZIP47 full-length protein (natural protein, rice (Oryza sativa), UniProt Q5Z6N9 1-385, looked up)
chain: MAAHQGMAAATAADRFCLPRMAAAAAAASQVENWGDSGVIVSSPFTDDTSTDLDDSADKHHLHALVGGGDGGDDAGEQRGADSSAVSKERRGDQKMQRRLAQNREAARKSRMRKKAYIQQLESSRSKLMHLEQELQRARQQGIFIATGGSGDHGHSIGGNGTLAFDLEYARWLDEHQRHINDLRVALNAQMSDDELCELVDAVMMHYDQVFRLKSFATKSDVFHVLSGMWMSPAERFFMWLGGFRSSELLKVLASHLEPLTDQQLMGICNLQQSSQQAEDALSQGMEALQQTLGDTLVSAAATVVSGGGGADNVTNYMGQMAIAMAKLTTLENFLRQADLLRHQTLQQMHRILTTRQAARALLVISDYFSRLRALSSLWLARPRD
For the protein B1, the binding result is reported as “binds”.

The values above are taken from paper doi:10.1101/2021.05.11.443658 (bioRxiv, 2021).
